In US20070042463A1 (BURNHAM INSTITUTE, published 2007):

T1: Siah-1 (22-298) (human, UniProt Q8IUQ4 6-282)
T1 construct: also called Siah-1α amino acids 22-298; LexA/Siah-1 bait
T1 sequence: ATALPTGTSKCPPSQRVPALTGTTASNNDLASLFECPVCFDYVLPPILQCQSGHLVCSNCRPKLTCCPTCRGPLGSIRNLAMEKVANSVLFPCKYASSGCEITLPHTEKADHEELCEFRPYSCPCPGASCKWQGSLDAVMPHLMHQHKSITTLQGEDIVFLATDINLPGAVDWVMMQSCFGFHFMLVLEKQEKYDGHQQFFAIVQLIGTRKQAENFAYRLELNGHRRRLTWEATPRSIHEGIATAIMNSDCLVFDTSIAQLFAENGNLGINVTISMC

T2: SAF-1 (human, UniProt Q9Y3I1 92-522)
T2 construct: also called SAF-1α; Skp1-Associated F-box protein-1
T2 sequence: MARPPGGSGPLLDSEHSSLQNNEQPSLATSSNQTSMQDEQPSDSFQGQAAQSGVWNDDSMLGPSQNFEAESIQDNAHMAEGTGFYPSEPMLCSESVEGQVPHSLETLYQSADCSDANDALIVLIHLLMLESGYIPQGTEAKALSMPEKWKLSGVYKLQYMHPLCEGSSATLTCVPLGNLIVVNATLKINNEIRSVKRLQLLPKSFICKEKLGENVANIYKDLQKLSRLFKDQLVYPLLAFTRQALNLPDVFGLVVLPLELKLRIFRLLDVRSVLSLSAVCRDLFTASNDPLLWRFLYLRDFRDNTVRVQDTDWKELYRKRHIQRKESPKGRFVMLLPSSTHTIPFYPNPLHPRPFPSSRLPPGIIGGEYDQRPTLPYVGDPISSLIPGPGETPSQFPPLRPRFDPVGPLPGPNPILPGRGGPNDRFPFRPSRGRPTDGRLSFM

B1: APC (2681-2843) (other, human, UniProt P25054 2681-2843, looked up)
chain: PVIDSVSEKANPNIKDSKDNQAKQNVGNGSVPMRTVGLENRLNSFIQVDAPDQKGTEIKPGQNNPVPVSETNESSIVERTPFSSSSSSKHSSPSGTVAARVTPFNYNPSPRKSSADSTSARPSQIPTPVNNNTKKRDSKTDSTESSGTQSPKRHSGSYLVTSV
notes: LexA or B42 fusion in yeast two-hybrid
B2: ODC-RANK peptide (protein, part only; not given: Order of parts uncertain, part only)
chain, part: MEQKLISEEDLMNNFGNEEFDCHFLDEGFTAKDILDQKINEVSSSDDKDAFYVADLGDILKKHLRWLKALPRVTPFYAVKCNDSKAIVKTLAATGTGFDCASKTEIQLVQSLGVPPERIIYANPCKQVSQIKYAANNGVQMMTFDSEVELMKVARAHPKAKLVLRIATDDSKAVCRLSVKFGATLRTSRLLLERAKELNIDVVGVSFHVGSGCTDPETFVQAISDARCVFDMGAEVGFSMYLLDIGGGFPGSEDVKLKFEEITGVINPALDKYFPSDSGVRIIAEPGRYYVASAFTLAVNIIAKKIVLKEQTGSDDEDESSEQTFMYYVNDGVYGSFNCILYDHAHVKPLLQKRPKPDEKYYSSSIWGPTCDGLDRIVERCDLPEMHVGDWMLFENMGAYTVAAASTFNGFQRPTIYYVMSGPAWQLMQQFQNPDFPPEVEEQDASTLPVSCAWESGMKRHRAACASASINVAGGGSGGGGSGGGGSGGGGS
B3: Siah-1 (other)
chain: MVIIIFLLPPYVFISEMSRQTATALPTGTSKCPPSQRVPALTGTTASNNDLASLFECPVCFDYVLPPILQCQSGHLVCSNCRPKLTCCPTCRGPLGSIRNLAMEKVANSVLFPCKYASSGCEITLPHTEKADHEELCEFRPYSCPCPGASCKWQGSLDAVMPHLMHQHKSITTLQGEDIVFLATDINLPGAVDWVMMQSCFGFHFMLVLEKQEKYDGHQQFFAIVQLIGTRKQAENFAYRLELNGHRRRLTWEATPRSIHEGIATAIMNSDCLVFDTSIAQLFAENGNLGINVTISMC
notes: also called Siah-1α; Siah 1α
B4: SIP-S (other)
chain: MASEELQKDLEEVKVLLEKATRKRVRDALTAEKSKIETEIKNKMQQKSQKKAELLDNEKPAAVVAPITTGYTDGISQISL
notes: B42 fusion in yeast two-hybrid
B5: empty (LexA DNA-binding domain without insert) (other, UniProt P0A7C2 1-202, looked up)
chain: MKALTARQQEVFDLIRDHISQTGMPPTRAEIAQRLGFRSPNAAEEHLKALARKGVIEIVSGASRGIRLLQEEEEGLPLVGRVAAGEPLLAQQHIEGHYQVDPSLFKPNADFLLRVSGMSMKDIGIMDGDLLAVHKTQDVRNGQVVVARIDDEVTVKRLKKQGNKVELLPENSEFKPIVVDLRQQSFTIEGLAVGVIRNGDWL
B6: SIP-L (other)
chain: MASEELQKDLEEVKVLLEKATRKRVRDALTAEKSKIETEIKNKMQQKSQKKAELLDNEKPAAVVAPITTGYTVKISNYGWDQSDKFVKIYITLTGVHQVPTENVQVHFTERSFDLLVKNLNGKSYSMIVNNLLKPISVEGSSKKVKTDTVLILCRKKVENTRWDYLTQVEKECKEKEKPSYDTETDPSEGLMNVLKKIYEDGDDDMKRTINKAWVESREKQAKGDTEF

Columns and labels:
Siah-1 (22-298) = target: T1, Siah-1 (22-298); assay: yeast two-hybrid library screen; LexA-Siah-1 (22-298) bait, human embryonic brain cDNA clones
Experimental: Transformations were performed by a LiCi method using 0.25 mg of pJG4-5-cDNA library DNA, and 5 mg of denatured salmon sperm carrier DNA. Clones that formed on Leu deficient BMM plates containing 2% galactose/1% raffinose were transferred to BMM plates containing leucine and 2% glucose, and filter assays were performed for β-galactosidase measurements as previously described.

[1] = target: B5; assay: yeast two-hybrid; empty LexA with B42-APC(2681-2843); Leu+ growth - and β-Gal -
HA-TRAF6 = assay: cell-based or functional assay
SAF-1 = target: T2, SAF-1; assay: yeast two-hybrid (FIG. 6A)
Experimental: Transformed cells were grown on semi-solid media lacking leucine or containing leucine as a control.

SIP-L [2] = target: B6; assay: yeast two-hybrid; LexA-SIP-L with B42-SIP-S; Leu+ growth - and β-Gal -
SIP-L [3] = target: B6; assay: yeast two-hybrid; empty LexA with B42-SIP-L; Leu+ growth - and β-Gal -
[4] = target: the molecule itself; assay: yeast two-hybrid; LexA-SIP-L with B42-SIP-L; growth on leucine-deficient media (Leu+)

Binder: B1
binding result (Siah-1 (22-298)): binds | binding result [1]: no binding

Binder: B2
half-life of HA-TRAF6 (35S pulse-chase), ODC-RANKp with AZ (HA-TRAF6): < 1 h | half-life of HA-TRAF6 (35S pulse-chase), ODC-RANKp without AZ (HA-TRAF6): 2 h

Binder: B3
binding result (SAF-1): no binding

Binder: B4
binding result (Siah-1 (22-298)): binds | binding result (SIP-L [2]): no binding

Binder: B5
binding result (SIP-L [3]): no binding

Binder: B6
binding result (Siah-1 (22-298)): binds | binding result [4]: binds
